From patent publication US20260232827A1 (Zymeworks, published 2026)

T1: Construct 7 (human NaPi2b del 317-326) (human, UniProt O95436 1-690)
T1 construct: also called CL_#29921
T1 sequence: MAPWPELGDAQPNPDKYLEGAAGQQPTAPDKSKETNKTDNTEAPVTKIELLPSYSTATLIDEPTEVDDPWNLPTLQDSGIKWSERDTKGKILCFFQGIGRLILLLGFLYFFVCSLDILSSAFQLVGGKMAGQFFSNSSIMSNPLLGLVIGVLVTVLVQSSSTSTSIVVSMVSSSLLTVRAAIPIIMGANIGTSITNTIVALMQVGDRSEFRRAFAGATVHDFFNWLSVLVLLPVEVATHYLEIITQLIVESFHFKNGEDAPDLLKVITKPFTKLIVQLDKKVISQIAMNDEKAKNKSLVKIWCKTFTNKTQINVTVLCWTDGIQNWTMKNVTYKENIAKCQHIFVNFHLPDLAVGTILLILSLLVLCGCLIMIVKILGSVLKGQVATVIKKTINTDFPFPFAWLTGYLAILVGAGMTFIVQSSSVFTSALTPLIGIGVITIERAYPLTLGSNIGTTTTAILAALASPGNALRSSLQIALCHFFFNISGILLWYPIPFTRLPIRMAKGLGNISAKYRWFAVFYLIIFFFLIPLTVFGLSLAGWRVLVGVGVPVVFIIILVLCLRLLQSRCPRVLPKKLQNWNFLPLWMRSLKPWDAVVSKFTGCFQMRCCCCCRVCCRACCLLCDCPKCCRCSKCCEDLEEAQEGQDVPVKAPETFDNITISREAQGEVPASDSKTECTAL

T2: Construct 6 (human NaPi2b del 317-333) (human, UniProt O95436 1-690)
T2 construct: also called CL_#29919
T2 sequence: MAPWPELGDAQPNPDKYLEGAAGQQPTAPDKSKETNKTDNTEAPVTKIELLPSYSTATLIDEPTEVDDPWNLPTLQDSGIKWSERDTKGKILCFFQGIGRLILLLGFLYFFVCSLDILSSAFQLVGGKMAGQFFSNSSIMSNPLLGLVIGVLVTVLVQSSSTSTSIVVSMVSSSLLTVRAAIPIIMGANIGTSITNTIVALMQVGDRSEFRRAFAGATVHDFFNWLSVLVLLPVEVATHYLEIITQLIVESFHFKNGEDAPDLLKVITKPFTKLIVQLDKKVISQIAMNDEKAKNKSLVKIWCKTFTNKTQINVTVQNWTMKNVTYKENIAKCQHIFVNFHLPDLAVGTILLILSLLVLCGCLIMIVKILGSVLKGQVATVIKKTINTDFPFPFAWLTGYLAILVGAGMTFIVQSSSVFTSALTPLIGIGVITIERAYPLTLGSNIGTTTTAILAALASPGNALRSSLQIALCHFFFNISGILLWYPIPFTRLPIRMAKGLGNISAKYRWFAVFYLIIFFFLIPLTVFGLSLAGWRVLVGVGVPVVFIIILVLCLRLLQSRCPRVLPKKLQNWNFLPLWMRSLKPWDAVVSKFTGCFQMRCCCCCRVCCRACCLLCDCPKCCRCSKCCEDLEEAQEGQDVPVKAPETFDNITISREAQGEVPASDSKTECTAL

B1: v38591 (humanized anti-NaPi2b antibody, H1L2, wild-type Fc, heavy chains with C-terminal lysine) (antibody, human IgG1, kappa)
heavy: not shown
light: DVQMTQSPSSLSASVGDRVTITCRASQDVYSYLNWYQQKPGKAVKLLIYYTSRLQSGVPSRFSGSGSGTDYTLTISSLQPEDFATYYCQQYNIFPWTFGQGTKLEIKRTVAAPSVFIFPPSDEQLKSGTASVVCLLNNFYPREAKVQWKVDNALQSGNSQESVTEQDSKDSTYSLSSTLTLSKADYEKHKVYACEVTHQGLSSPVTKSFNRGEC
notes: Full-size human IgG1/kappa antibody; also called v38591 (wild-type Fc)
B2: MX35 (v18992), reference anti-NaPi2b antibody (antibody, human IgG1, kappa)
heavy 1: GQVQLVQSGAEVVKPGASVKMSCKASGYTFTGYNIHWVKQAPGQGLEWIGAIYPGNGDTSYKQKFRGRATLTADTSTSTVYMELSSLRSEDSAVYYCARGETARATFAYWGQGTLVTVSSASTKGPSVFPLAPSSKSTSGGTAALGCLVKDYFPEPVTVSWNSGALTSGVHTFPAVLQSSGLYSLSSVVTVPSSSLGTQTYICNVNHKPSNTKVDKKVEPKSCDKTHTCPPCPAPELLGGPSVFLFPPKPKDTLMISRTPEVTCVVVDVSHEDPEVKFNWYVDGVEVHNAKTKPREEQYNSTYRVVSVLTVLHQDWLNGKEYKCKVSNKALPAPIEKTISKAKGQPREPQVYVYPPSRDELTKNQVSLTCLVKGFYPSDIAVEWESNGQPENNYKTTPPVLDSDGSFALVSKLTVDKSRWQQGNVFSCSVMHEALHNHYTQKSLSLSPG
heavy 2: not shown
light: GDIQMTQSPSSLSASVGDRVTITCSASQDIGNFLNWYQQKPGKTVKVLIYYTSSLYSGVPSRFSGSGSGTDYTLTISSLQPEDFATYYCQQYSKLPLTFGQGTKLELKRTVAAPSVFIFPPSDEQLKSGTASVVCLLNNFYPREAKVQWKVDNALQSGNSQESVTEQDSKDSTYSLSSTLTLSKADYEKHKVYACEVTHQGLSSPVTKSFNRGEC
B3: palivizumab (v21995), anti-RSV antibody, negative control (antibody, human IgG1, kappa, V domains shown)
VH: QVTLRESGPALVKPTQTLTLTCTFSGFSLSTSGMSVGWIRQPPGKALEWLADIWWDDKKDYNPSLKSRLTISKDTSKNQVVLKVTNMDPADTATYYCARSMITNWYFDVWGAGTTVTVSS
VL: DIQMTQSPSTLSASVGDRVTITCKSQLSVGYMHWYQQKPGKAPKLLIYDTSKLASGVPSRFSGSGSGTEFTLTISSLQPDDFATYYCFQGSGYPFTFGGGTKLEIKR
B4: lifastuzumab (v18993), reference anti-NaPi2b antibody (antibody, human IgG1, kappa)
heavy 1: GEVQLVESGGGLVQPGGSLRLSCAASGFSFSDFAMSWVRQAPGKGLEWVATIGRVAFHTYYPDSMKGRFTISRDNSKNTLYLQMNSLRAEDTAVYYCARHRGFDVGHFDFWGQGTLVTVSSASTKGPSVFPLAPSSKSTSGGTAALGCLVKDYFPEPVTVSWNSGALTSGVHTFPAVLQSSGLYSLSSVVTVPSSSLGTQTYICNVNHKPSNTKVDKKVEPKSCDKTHTCPPCPAPELLGGPSVFLFPPKPKDTLMISRTPEVTCVVVDVSHEDPEVKFNWYVDGVEVHNAKTKPREEQYNSTYRVVSVLTVLHQDWLNGKEYKCKVSNKALPAPIEKTISKAKGQPREPQVYVYPPSRDELTKNQVSLTCLVKGFYPSDIAVEWESNGQPENNYKTTPPVLDSDGSFALVSKLTVDKSRWQQGNVFSCSVMHEALHNHYTQKSLSLSPG
heavy 2: not shown
light: GDIQMTQSPSSLSASVGDRVTITCRSSETLVHSSGNTYLEWYQQKPGKAPKLLIYRVSNRFSGVPSRFSGSGSGTDFTLTISSLQPEDFATYYCFQGSFNPLTFGQGTKVEIKRTVAAPSVFIFPPSDEQLKSGTASVVCLLNNFYPREAKVQWKVDNALQSGNSQESVTEQDSKDSTYSLSSTLTLSKADYEKHKVYACEVTHQGLSSPVTKSFNRGEC

Each binder was assayed against T3, Construct 4 (chimeric human NaPi2b, swap in NaPi2c in 341-358) (human) (assay: flow cytometry, transfected HEK293-6e cells, antibody 200 nM;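 also: cells incubated with antibody for 24 h at 4 °C, background taken as average MFI of unstained cells without primary antibody, at least 1,000 events per well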).
T3 construct: also called CL_#13435

Row | Binder | Background-Subtracted AF647 Mean Fluorescence Intensity
1 | B1 | 933 MFI
2 | B2 | 764 MFI
3 | B3 | 12 MFI
4 | B4 | 744 MFI

The binders below were run against T4, Construct 3 (chimeric human NaPi2b, swap in NaPi2c in 304-321) (human) in the same assay as above.
T4 construct: also called CL_#29916

Row | Binder | Background-Subtracted AF647 Mean Fluorescence Intensity
5 | B1 | 810 MFI
6 | B2 | 802 MFI
7 | B3 | -5 MFI
8 | B4 | 943 MFI

What follows are binders tested against T1, Construct 7 (human NaPi2b del 317-326) in the same assay as above.

Row | Binder | Background-Subtracted AF647 Mean Fluorescence Intensity
9 | B1 | 626 MFI
10 | B2 | 298 MFI
11 | B3 | -97 MFI
12 | B4 | 21 MFI

The binders below were run against T5, Construct 5 (chimeric human NaPi2b, swap in NaPi2a in 304-348) (human) in the same assay as above.
T5 construct: also called CL_#13436

Row | Binder | Background-Subtracted AF647 Mean Fluorescence Intensity
13 | B1 | 204 MFI
14 | B2 | 219 MFI
15 | B3 | 40 MFI
16 | B4 | 302 MFI

The binders below were run against T6, Construct 2 (chimeric human NaPi2b, swap in NaPi2c in 280-301) (human) in the same assay as above.
T6 construct: also called CL_#29915

Row | Binder | Background-Subtracted AF647 Mean Fluorescence Intensity
17 | B1 | 1410 MFI
18 | B2 | 1360 MFI
19 | B3 | -30 MFI
20 | B4 | 1230 MFI

The binders below were run against T2, Construct 6 (human NaPi2b del 317-333) in the same assay as above.

Row | Binder | Background-Subtracted AF647 Mean Fluorescence Intensity
21 | B1 | 210 MFI
22 | B2 | -2 MFI
23 | B3 | 2 MFI
24 | B4 | 183 MFI

What follows are binders tested against T3, Construct 4 (chimeric human NaPi2b, …) (assay: flow cytometry, transfected HEK293-6e cells, antibody 2 nM;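 also: transfected cells exposed to test antibody 24 h at 4 °C to block internalization, at least 1,000 events per well, background is mean MFI of unstained cells lacking primary antibody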).

Row | Binder | Background-Subtracted AF647 Mean Fluorescence Intensity
25 | B1 | 725 MFI
26 | B2 | 611 MFI
27 | B3 | 1 MFI
28 | B4 | 726 MFI

The binders below were run against T4, Construct 3 (chimeric human NaPi2b, …) in the same assay as above.

Row | Binder | Background-Subtracted AF647 Mean Fluorescence Intensity
29 | B1 | 743 MFI
30 | B2 | 594 MFI
31 | B3 | 19 MFI
32 | B4 | 609 MFI

The binders below were run against T1, Construct 7 (human NaPi2b del 317-326) in the same assay as above.

Row | Binder | Background-Subtracted AF647 Mean Fluorescence Intensity
33 | B1 | 677 MFI
34 | B2 | 76 MFI
35 | B3 | -34 MFI
36 | B4 | 56 MFI

The binders below were run against T5, Construct 5 (chimeric human NaPi2b, …) in the same assay as above.

Row | Binder | Background-Subtracted AF647 Mean Fluorescence Intensity
37 | B1 | -12 MFI
38 | B2 | 16 MFI
39 | B3 | -2 MFI
40 | B4 | 25 MFI

These binders were tested against T7, Construct 1 (chimeric human NaPi2b, swap in NaPi2c in 239-259) (human) in the same assay as above.
T7 construct: also called CL_#29914

Row | Binder | Background-Subtracted AF647 Mean Fluorescence Intensity
41 | B1 | 1550 MFI
42 | B2 | 1890 MFI
43 | B3 | -30 MFI
44 | B4 | 1230 MFI

The binders below were run against T6, Construct 2 (chimeric human NaPi2b, …) in the same assay as above.

Row | Binder | Background-Subtracted AF647 Mean Fluorescence Intensity
45 | B1 | 832 MFI
46 | B2 | 660 MFI
47 | B3 | -69 MFI
48 | B4 | 473 MFI

What follows are binders tested against T2, Construct 6 (human NaPi2b del 317-333) in the same assay as above.

Row | Binder | Background-Subtracted AF647 Mean Fluorescence Intensity
49 | B1 | -38 MFI
50 | B2 | -59 MFI
51 | B3 | 11 MFI
52 | B4 | -91 MFI
